In series [1] the target is T1, Factor XII (FXII, zymogen) (human, UniProt P00748 20-615).
T1 sequence: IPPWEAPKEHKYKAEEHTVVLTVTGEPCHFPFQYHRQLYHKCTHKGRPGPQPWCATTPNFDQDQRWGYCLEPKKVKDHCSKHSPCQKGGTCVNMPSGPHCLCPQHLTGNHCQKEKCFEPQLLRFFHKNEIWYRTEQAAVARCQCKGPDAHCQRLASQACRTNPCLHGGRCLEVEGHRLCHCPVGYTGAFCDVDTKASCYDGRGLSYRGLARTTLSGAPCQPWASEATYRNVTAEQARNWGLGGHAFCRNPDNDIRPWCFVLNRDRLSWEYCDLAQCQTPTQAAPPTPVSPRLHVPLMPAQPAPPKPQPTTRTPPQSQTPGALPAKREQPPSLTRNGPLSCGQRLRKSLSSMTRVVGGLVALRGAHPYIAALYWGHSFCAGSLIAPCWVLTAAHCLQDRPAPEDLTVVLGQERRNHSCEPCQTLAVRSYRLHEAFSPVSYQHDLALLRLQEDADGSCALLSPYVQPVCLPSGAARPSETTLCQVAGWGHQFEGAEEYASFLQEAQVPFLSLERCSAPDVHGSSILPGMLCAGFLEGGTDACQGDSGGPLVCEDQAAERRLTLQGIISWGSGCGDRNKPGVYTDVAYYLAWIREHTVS
Kind of series: nitrocellulose filter binding.

Series [2] deals with T2, Factor XIIa (alpha-FXIIa) (UniProt P00748;P00748 20-372;373-615).
T2 sequence 1: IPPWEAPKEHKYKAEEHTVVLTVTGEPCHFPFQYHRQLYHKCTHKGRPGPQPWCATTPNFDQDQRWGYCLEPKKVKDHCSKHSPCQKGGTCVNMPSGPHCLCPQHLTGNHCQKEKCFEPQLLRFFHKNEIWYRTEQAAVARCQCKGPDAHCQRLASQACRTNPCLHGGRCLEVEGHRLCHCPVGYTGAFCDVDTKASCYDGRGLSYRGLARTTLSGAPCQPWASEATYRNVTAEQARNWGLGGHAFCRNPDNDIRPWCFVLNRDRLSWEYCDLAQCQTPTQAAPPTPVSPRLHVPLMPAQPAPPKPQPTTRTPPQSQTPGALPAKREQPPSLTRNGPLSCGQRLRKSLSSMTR
T2 sequence 2: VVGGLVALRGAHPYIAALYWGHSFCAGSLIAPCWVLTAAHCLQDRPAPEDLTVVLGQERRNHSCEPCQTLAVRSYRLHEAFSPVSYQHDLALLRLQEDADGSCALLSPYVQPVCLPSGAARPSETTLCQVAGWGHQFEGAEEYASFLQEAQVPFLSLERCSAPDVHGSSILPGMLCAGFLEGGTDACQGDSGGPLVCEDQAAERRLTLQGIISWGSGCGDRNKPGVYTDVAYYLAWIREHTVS
Kind of series: nitrocellulose filter binding.

In series [3] the target is T1, Factor XII (FXII, zymogen). In words: double-filter nitrocellulose binding.
Series [4] has as its target T2, Factor XIIa (alpha-FXIIa). In words: double-filter nitrocellulose binding.
The target of series [5] is T2, Factor XIIa (alpha-FXIIa). In words: double-filter nitrocellulose binding. This is another data set of the same source.
Series [6] has as its target T1, Factor XII (FXII, zymogen). Kind of series: double-filter nitrocellulose binding. The source holds these as a separate data set.

Where two headings read alike, the source gives them in different places.

In general, Kd refers to a measure of binding affinity in units of concentration. Low readings indicate tighter binding, high ones weaker binding.

B1: scrambled control RNA (XNA)
RNA: GGGGCAGCCGUGGACCGACUGCCGCAUGCCAUUGACAGUCCGAUGCCAGGC
modifications: all C and U are 2'-fluoro; A and G ribo
Regarding B1, the binding result in series [1] and in series [2] was “no binding” each time.

B2: R4cXII-1t (XNA)
RNA: GGCUCGGCUGCCAGCAGGUCACGAGUCGCAGCGACUCGCUGAGGAUCCGAG
modifications: all C and U are 2'-fluoro; A and G ribo
Regarding B2, the Kd in series [3] was 12.9 ± 2.06 nM; in series [4], 0.4 ± 0.02 nM.

B3: R4cXII-1 (XNA)
RNA: GGGAGGACGAUGCGGCCAAAUCUCGGCUGCCAGCAGGUCACGAGUCGCAAGAUAACAGACGACUCGCUGAGGAUCCGAGA
modifications: all C and U are 2'-fluoro; A and G ribo
For the molecule B3, the values for the Kd in series [5] and in series [6] were 0.5 ± 0.2 nM and 8.9 ± 1 nM, respectively.

The record behind these values is PMC3816843.
